Here are results for two substances from PMC6435465.

The target of test [1] is YabJ from Staphylococcus aureus Mu50 (SAV0497), native recombinant (Staphylococcus aureus Mu50). Nature of the test: SDS/PAGE; 12% polyacrylamide gel, samples treated with 1% SDS and 5% 2-mercaptoethanol at 100°C for 5 min; trimer band at 50 kDa, monomer band at 16 kDa.
The target is the same in test [2]. Nature of the test: crystal structure; 1.75 Å, space group P2(1), six molecules per asymmetric unit; crystals from 25% PEG3350, 100 mM Tris/HCl pH 8.5, 293 K; interfaces calculated with PISA.
Test [3] has the same target. Put plainly: SEC; size-exclusion chromatography of native and chemically treated SAYabJ; excess HOCl, DTT and H2O2 removed by dialysis beforehand; Superdex 75 (10/300 GL), 50 mM Tris/HCl pH 7.5, 200 mM NaCl named for the purification. Background: SEC sorts molecules by how far they enter the pores of the column.
Test [4] deals with chlorinated and reduced SAYabJ (HOCl-treated, then DTT-reduced YabJ from S. aureus Mu50) (Staphylococcus aureus Mu50). Put plainly: SDS/PAGE; 12% polyacrylamide gel, samples treated with 1% SDS and 5% 2-mercaptoethanol at 100°C for 5 min; trimer band at 50 kDa, monomer band at 16 kDa.

A word on the stoichiometry N: it is a count of units in the complex or per binding partner. Consider “YabJ from Staphylococcus aureus Mu50 (SAV0497), native recombinant (natural protein)”, for which the stoichiometry N in test [1], in test [2] and in test [3] was 3 each time.

For “chlorinated and reduced SAYabJ (HOCl-treated, then DTT-reduced YabJ from S. aureus Mu50) (natural protein)”, the stoichiometry N in test [4] worked out at 3.
